The record followed here is US7312188B2, “Peptide derivatives having β-secretase inhibitory activity” (priority 2003, dated 2007).

Numbered stars: 1 amine (or outer) side, 2 acyl side, 3 side chain; on linkers, the order of the positions; unused ones are H or OH. Square brackets hold non-standard residues; d marks the D form. β3hPhe(2R-OH) = O=C([C@H](O)[C@H](Cc1ccccc1)N[*:1])[*:2]

T1 sequence (P56817 22-460 limits assumed): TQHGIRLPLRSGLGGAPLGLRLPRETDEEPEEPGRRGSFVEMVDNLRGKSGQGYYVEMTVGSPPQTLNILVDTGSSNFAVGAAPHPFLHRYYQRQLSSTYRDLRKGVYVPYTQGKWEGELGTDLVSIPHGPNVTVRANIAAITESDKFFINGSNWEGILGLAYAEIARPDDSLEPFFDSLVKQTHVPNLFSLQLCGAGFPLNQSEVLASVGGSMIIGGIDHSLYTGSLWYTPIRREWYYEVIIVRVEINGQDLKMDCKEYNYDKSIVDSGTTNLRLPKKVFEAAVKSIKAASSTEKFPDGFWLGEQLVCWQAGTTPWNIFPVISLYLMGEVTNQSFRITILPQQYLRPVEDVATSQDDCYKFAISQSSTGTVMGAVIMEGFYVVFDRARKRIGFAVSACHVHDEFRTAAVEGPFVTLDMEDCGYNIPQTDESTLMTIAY

The test addresses T1, recombinant human BACE-1 (rhBACE-1) (Homo sapiens, UniProt P56817).
T1 construct: expressed as only an extracellular region (amino acid 1-460 residues) of recombinant human β-secretase; His tag (C); purchased R&D systems (Minneapolis, Minn.); host or cells: murine myeloma cell line NS0
Description: BACE1 inhibitory activity, reverse phase HPLC quantitation of N-terminal fragment of fluorogenic substrate. Format: biochemical. The note with it: 1 μL of inhibitor solution in DMSO (100 μM) in 50 μL reaction; MES buffer pH 5.0; 37° C., 60 minutes. An outline of the steps: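 rhBACE-1 ectodomain (residues 1-460, C-terminal His tag, NS0-expressed) in MES buffer pH 5.0 with inhibitor (diluted in DMSO, 100 μM solution) and MCA/DNP fluorogenic peptide (250 μM stock), 60 min at 37 °C, TCA stop. N-terminal fragment quantified by reverse-phase HPLC fluorescence (Ex 328/Em 393 nm); inhibition % derived.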
For the substance “H-Glu-Val-Leu-Pns-Asp-Ala-Leu-Phe-OH (H-EVL[β3hPhe(2R-OH)]DALF-OH; SMILES CC(C)C[C@H](NC(=O)[C@H](C)NC(=O)[C@H](CC(=O)O)NC(=O)[C@H](O)[C@H](Cc1ccccc1)NC(=O)[C@H](CC(C)C)NC(=O)[C@@H](NC(=O)[C@@H](N)CCC(=O)O)C(C)C)C(=O)N[C@@H](Cc1ccccc1)C(=O)O) [Example 30]”, the “Activity (BACE1 inhibition %)” value came to 56.57%.

With “H-Glu-Val-Leu-Pns-Asp-Ala-Phe-Phe-OH (H-EVL[β3hPhe(2R-OH)]DAFF-OH; SMILES CC(C)C[C@H](NC(=O)[C@@H](NC(=O)[C@@H](N)CCC(=O)O)C(C)C)C(=O)N[C@@H](Cc1ccccc1)[C@@H](O)C(=O)N[C@@H](CC(=O)O)C(=O)N[C@@H](C)C(=O)N[C@@H](Cc1ccccc1)C(=O)N[C@@H](Cc1ccccc1)C(=O)O) [Example 31]”, the “Activity (BACE1 inhibition %)” value is on record as 66.56%.

Regarding “H-Glu-Val-Leu-Pns-Asp-Ala-Val-Phe-OH (H-EVL[β3hPhe(2R-OH)]DAVF-OH; SMILES CC(C)C[C@H](NC(=O)[C@@H](NC(=O)[C@@H](N)CCC(=O)O)C(C)C)C(=O)N[C@@H](Cc1ccccc1)[C@@H](O)C(=O)N[C@@H](CC(=O)O)C(=O)N[C@@H](C)C(=O)N[C@H](C(=O)N[C@@H](Cc1ccccc1)C(=O)O)C(C)C) [Example 29]”, the “Activity (BACE1 inhibition %)” value was found to be 57.47%.

On to “H-Glu-Val-Leu-Pns-Asp-Gly-Glu-Phe-OH (H-EVL[β3hPhe(2R-OH)]DGEF-OH; SMILES CC(C)C[C@H](NC(=O)[C@@H](NC(=O)[C@@H](N)CCC(=O)O)C(C)C)C(=O)N[C@@H](Cc1ccccc1)[C@@H](O)C(=O)N[C@@H](CC(=O)O)C(=O)NCC(=O)N[C@@H](CCC(=O)O)C(=O)N[C@@H](Cc1ccccc1)C(=O)O) [Example 43]”, for which the “Activity (BACE1 inhibition %)” value worked out at 81.23%.

On to H-Glu-Val-Leu-Pns-Asp-OH [Example 34], for which the “Activity (BACE1 inhibition %)” value is listed as 63.71%.

Turning to “H-Glu-Val-Leu-Pns-Glu-Ala-Glu-Phe-OH (H-EVL[β3hPhe(2R-OH)]EAEF-OH; SMILES CC(C)C[C@H](NC(=O)[C@@H](NC(=O)[C@@H](N)CCC(=O)O)C(C)C)C(=O)N[C@@H](Cc1ccccc1)[C@@H](O)C(=O)N[C@@H](CCC(=O)O)C(=O)N[C@@H](C)C(=O)N[C@@H](CCC(=O)O)C(=O)N[C@@H](Cc1ccccc1)C(=O)O) [Example 15]”, the “Activity (BACE1 inhibition %)” value amounted to 54.52%.

With “H-Glu-Val-Leu-Pns-Gly-Ala-Glu-Phe-OH (H-EVL[β3hPhe(2R-OH)]GAEF-OH; SMILES CC(C)C[C@H](NC(=O)[C@@H](NC(=O)[C@@H](N)CCC(=O)O)C(C)C)C(=O)N[C@@H](Cc1ccccc1)[C@@H](O)C(=O)NCC(=O)N[C@@H](C)C(=O)N[C@@H](CCC(=O)O)C(=O)N[C@@H](Cc1ccccc1)C(=O)O) [Example 42]”, the “Activity (BACE1 inhibition %)” value is recorded as 56.72%.

Take “β-ODap-Val-Leu-Pns-Asp-Ala-Gly-Phe-OH ({β‑ODap}-VL[β3hPhe(2R-OH)]DAGF-OH) [Example 63]”: the “Activity (BACE1 inhibition %)” value amounted to 96.66%.
